Entries after “also recorded” stand apart in the source; their conditions may differ. Read-outs that look alike come from different tables or passages of the source. PEG = not defined here A value given as a limit tells only on which side of the number the result lay.

In series [1] the target is T1, CGRP1 receptor (Rattus norvegicus, UniProt Q63118+Q9JJ74).
T1 construct: from tissue; host or cells: living anaesthetised rat, abdominal skin
Put plainly: laser Doppler blood flowmetry assay (hαCGRP-induced skin blood flow). The conditions noted are these: i.v., pre-treatment 5 minutes. Format: in vivo. As for the experimental part: Methods. An automated laser Doppler blood flowmetry device is used (MoorLDI®; Moor Instrument, Devon, UK). The device was turned on prior to the start of experiments and allowed to warm up for 20 minutes. Blood flow data (in FLUX) were read from software records (see below).
For each rat, the experimental procedure was performed within a single day and was each rat was sacrificed on the same day immediately after the experiment was over. On an experiment day, each rat was weighed and administered 1 ml/kg (intramuscular injection in right leg) of an anesthetic cocktail consisting of Ketamine, Xylazine and PBS (5:3:2). […] A small dot was placed near the center of the abdomen using a marker. The animal was then ready for the experiment.
Approximately 20 min after the injection of the anesthetic cocktail, baseline blood flow readings were collected for each animal. Each rat was placed under the laser Doppler scanning device, matching the laser with the marker dot on the abdomen. Using the device's software package, the device was activated and the surface of the abdomen was scanned for 1 min with the laser. The scan area was 4 cm×4 cm. […]
In some cases, plasma IC50 values were calculated by performing least squares linear regression on log plasma concentration values (nM) vs. % change in blood flow values calculated for individual rats.

Series [2] in a line: solubility in aqueous conjugation buffers. Type of series: physicochemical. As for the experimental part:
Co-solvent mediated conjugation of vehicle to CGRP peptide antagonists. […] In an attempt to better solubilize these less soluble peptides during the conjugation reaction, and thereby improve conjugate yields, a variety of alcohol co-solvents were tested in the conjugation reaction.

Series [3] is described as follows: in vitro metabolic identification in 100% monkey plasma, LC-MS/MS. Type of series: in vitro ADME. Conditions: 100% Cynomolgus monkey plasma, 4 hours. An excerpt: Extracted samples were collected for LC-MS/MS analysis.
(Also, see Example 7 herein below for comparison with in vivo metabolic identification.)

A short description of series [4]: in vivo metabolic identification in monkey plasma during intravenous infusion. Conditions: 20 min during intravenous infusion. Also on record: species or system Cynomolgus monkey. The source says: Monkey pharmacokinetic studies.
Samples were taken as described above. After thawing, each 100-11 plasma sample was extracted by solid phase extraction. Extracted samples were collected for LC-MS/MS analysis.

Series [5] can be described thus: rat plasma (10% rat plasma in the legend of FIG. 2). The conditions noted are these: room temperature, up to 1 hour.
Series [6] can be described thus: stability in undiluted rat plasma at 37° C. by ELISA. Format: in vitro ADME. An excerpt:
(§1) Examples of this approach are the replacement of arginine (R) with citrulline, and phenylalanine (F) with 3-(1-naphthyl)alanine. We have also cyclized side-chain to side-chain (for example, i, i+4 residues) to form ring structures which also increase overall plasma stability (See, e.g., FIG. 3 and FIG. 13).
(In an ELISA, binding on a coated surface is turned into a signal by an enzyme label.)

The nature of series [7]: stability in undiluted Cynomolgus plasma at 37° C. by ELISA. Type of series: in vitro ADME. Conditions: cynomolgus monkey.
Source text: as §1

Series [8] in a line: stability in undiluted human plasma at 37° C. by ELISA. Type of series: in vitro ADME.
Source text: as §1

The conditions of series [9]: rat, in vivo, 2 mg/kg.
Experimental: Rat pharmacokinetic studies. […] There were three rats per group (n=3), each weighing 250-325 g. Each group received either a 2 mg/kg intravenous or subcutaneous discrete administration. The approximate dose volume was 0.3 mL per rat. Approximately 0.25 mL of whole blood was taken per time point at the following post-dose collection times for the intravenous groups (in hours): 0.083, 0.25, 0.5, 1, 2, 4, 6, 8, 24, 48, 72, 96 and the following time points for the subcutaneous groups (in hours): 0.25, 0.5, 1, 2, 4, 6, 8, 24, 48, 72, 96. Whole blood samples were collected in microtainer vials containing EDTA as anticoagulant and were kept on wet ice until processed for plasma. The plasma was obtained by centrifuging the whole blood for approximately 5 min at 11,500 rpm. Plasma was transferred to new tubes and stored frozen at approximately −70° C. until quantitative analysis. […] The individual sample concentrations for each time point were averaged (n=3) within a given dose group using Excel 2000 software. The averaged plasma concentration-time data were analyzed by noncompartmental methods using WinNonlin v.3.3 software. Nominal sample times were used in the pharmacokinetic analysis. The area under the concentration-time curve was calculated using the linear/log trapezoidal method to determine exposure.
A short description of series [10]: 100% Cynomolgus monkey plasma. Conditions: room temperature, up to 4 hour.
Series [11] is described as follows: monkey plasma during 30 minutes of intravenous infusion. Conditions: Cynomolgus monkeys (Macaca fascicularis), up to 20 min during the infusion.
A short description of another series: 100% human plasma. Conditions: room temperature, up to 4 hour.
The conditions of series [12]: mouse.
Experimental: Peptide samples at 2 mg/ml in PBS were spiked with 5% mouse plasma and analyzed by sandwich ELISA (as described in Example 3 herein above) over 48 hours at room temperature. Peptide integrity was determined by sandwich ELISA requiring intact peptide termini.
The target of series [13] is T2, CGRP1 receptor (Homo sapiens, UniProt O60894+Q16602).
T2 construct: SK-N-MC cells express CRLR and RAMP1, which form CGRP1 receptor; endogenous in cells; host or cells: SK-N-MC human neuroblastoma cells
Put plainly: in vitro CGRP1 receptor mediated cAMP assay in SK-N-MC cells. Format: cell-based. Conditions: cAMP assay. Put shortly:
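Human SK-N-MC neuroblastoma cells, which endogenously express CRLR/RAMP1, were plated two days before assay and preincubated in plasma-free medium for 15 minutes at room temperature. Cells were then lysed for 30 minutes at 37° C, and cAMP in the lysates was quantified by competitive cAMP-AP chemiluminescent ELISA.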

The next series has as its target rat CGRP1 receptor (Rattus norvegicus, UniProt Q63118+Q9JJ74). Put plainly: in vitro functional potency against the rat ortholog of the CGRP1 receptor. Type of series: cell-based. An excerpt:
Results and Conclusions. […] This was reflected by an apparently similar rightward shift in potency in vivo.

T1 sequence (Q63118 24-464): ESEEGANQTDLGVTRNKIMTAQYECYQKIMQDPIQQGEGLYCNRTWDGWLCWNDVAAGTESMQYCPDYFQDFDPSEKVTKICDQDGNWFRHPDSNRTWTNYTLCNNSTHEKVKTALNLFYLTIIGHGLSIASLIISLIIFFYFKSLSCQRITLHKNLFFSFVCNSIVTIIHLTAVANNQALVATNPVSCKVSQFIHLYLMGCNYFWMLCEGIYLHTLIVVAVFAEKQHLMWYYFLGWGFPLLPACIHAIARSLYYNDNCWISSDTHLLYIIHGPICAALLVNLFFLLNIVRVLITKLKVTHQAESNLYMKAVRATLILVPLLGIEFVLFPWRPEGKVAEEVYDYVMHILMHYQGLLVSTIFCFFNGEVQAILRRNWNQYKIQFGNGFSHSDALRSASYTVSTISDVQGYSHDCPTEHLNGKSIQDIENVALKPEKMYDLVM
T1 sequence (Q9JJ74 27-148): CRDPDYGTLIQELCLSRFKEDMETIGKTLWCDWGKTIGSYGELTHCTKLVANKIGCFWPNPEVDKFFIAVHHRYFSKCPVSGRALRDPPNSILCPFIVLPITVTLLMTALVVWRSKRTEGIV
T2 sequence (Q16602 23-461): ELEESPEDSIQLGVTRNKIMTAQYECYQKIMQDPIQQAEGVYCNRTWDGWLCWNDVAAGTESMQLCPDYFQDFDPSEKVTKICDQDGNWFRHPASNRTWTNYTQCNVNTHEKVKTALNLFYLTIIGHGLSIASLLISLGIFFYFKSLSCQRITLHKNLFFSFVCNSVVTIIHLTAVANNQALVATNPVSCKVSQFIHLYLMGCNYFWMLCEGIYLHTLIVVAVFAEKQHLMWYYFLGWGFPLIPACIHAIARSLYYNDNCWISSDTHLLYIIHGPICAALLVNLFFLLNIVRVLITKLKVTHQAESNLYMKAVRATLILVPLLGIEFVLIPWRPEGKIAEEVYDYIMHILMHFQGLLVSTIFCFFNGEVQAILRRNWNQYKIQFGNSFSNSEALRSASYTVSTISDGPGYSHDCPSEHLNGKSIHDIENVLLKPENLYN
T2 sequence (O60894 27-148): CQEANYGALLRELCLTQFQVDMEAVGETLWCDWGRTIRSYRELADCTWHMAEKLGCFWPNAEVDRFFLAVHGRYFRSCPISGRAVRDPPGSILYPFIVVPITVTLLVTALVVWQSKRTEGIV
rat CGRP1 receptor, sequence (Q63118 24-464): as the sequence (Q63118 24-464) above
rat CGRP1 receptor, sequence (Q9JJ74 27-148): as the sequence (Q9JJ74 27-148) above

On to `CC(=O)N[C@@H](Cc1c[nH]c2ccccc12)C(=O)N[C@H](C(=O)N[C@H](C(=O)N[C@@H](Cc1c[nH]cn1)C(=O)N[C@@H](CCCNC(N)=O)C(=O)N[C@@H](CC(C)C)C(=O)N[C@@H](C)C(=O)NCC(=O)N[C@@H](CC(C)C)C(=O)N[C@@H](CC(C)C)C(=O)N[C@@H](CO)C(=O)N[C@@H](CCCNC(N)=O)C(=O)N[C@@H](CO)C(=O)NCC(=O)NCC(=O)N[C@H](C(=O)N[C@H](C(=O)N[C@@H](CCCCNC(=N)N)C(=O)N[C@@H](CCCCN)C(=O)N[C@@H](CC(N)=O)C(=O)N[C@@H](Cc1ccccc1)C(=O)N[C@H](C(=O)N1CCC[C@H]1C(=O)N[C@H](C(=O)N[C@@H](CC(=O)O)C(=O)N[C@H](C(=O)NCC(=O)N1CCC[C@H]1C(=O)N[C@@H](Cc1ccccc1)C(=O)N[C@@H](C)C(=O)N[C@@H](Cc1ccccc1)C(N)=O)C(C)C)[C@@H](C)O)C(C)C)C(C)C)C(C)C)[C@@H](C)O)C(C)C` [Compound 739], for which the “Efficacy observed (%) (at highest dose tested)” value on CGRP1 receptor [1] (6 mg/kg) turned out to be 100%.
As to `CC(=O)N[C@@H](Cc1c[nH]c2ccccc12)C(=O)N[C@H](C(=O)N[C@H](C(=O)N[C@@H](Cc1c[nH]cn1)C(=O)N[C@@H](CCCNC(=N)N)C(=O)N[C@@H](CC(C)C)C(=O)N[C@@H](C)C(=O)NCC(=O)N[C@@H](CC(C)C)C(=O)N[C@@H](CC(C)C)C(=O)N[C@@H](CO)C(=O)N[C@@H](CCCNC(=N)N)C(=O)N[C@@H](CO)C(=O)NCC(=O)NCC(=O)N[C@H](C(=O)N[C@H](C(=O)N[C@@H](CCCNC(=N)N)C(=O)N[C@@H](CCCCN)C(=O)N[C@@H](CC(N)=O)C(=O)N[C@@H](Cc1ccccc1)C(=O)N[C@H](C(=O)N1CCC[C@H]1C(=O)N[C@H](C(=O)N[C@@H](CC(=O)O)C(=O)N[C@H](C(=O)NCC(=O)N1CCC[C@H]1C(=O)N[C@@H](Cc1ccccc1)C(=O)N[C@@H](C)C(=O)N[C@@H](Cc1ccccc1)C(N)=O)C(C)C)[C@@H](C)O)C(C)C)C(C)C)C(C)C)[C@@H](C)O)C(C)C` [Compound 808], the “Efficacy observed (%) (at highest dose tested)” value at CGRP1 receptor [1] (0.6 mg/kg) is reported as 100%.
With `CC(=O)N[C@@H](Cc1c[nH]c2ccccc12)C(=O)N[C@H](C(=O)N[C@H](C(=O)N[C@@H](Cc1c[nH]cn1)C(=O)N[C@@H](CCCNC(N)=O)C(=O)N[C@@H](CC(C)C)C(=O)N[C@@H](C)C(=O)NCC(=O)N[C@@H](CC(C)C)C(=O)N[C@@H](CC(C)C)C(=O)N[C@@H](CO)C(=O)N[C@@H](CCCNC(N)=O)C(=O)N[C@@H](CO)C(=O)NCC(=O)NCC(=O)N[C@H](C(=O)N[C@H](C(=O)N[C@@H](CCCCNC(=N)N)C(=O)N[C@@H](CCCCN)C(=O)N[C@@H](CC(N)=O)C(=O)N[C@@H](Cc1ccccc1)C(=O)N[C@H](C(=O)N1CCC[C@H]1C(=O)N[C@H](C(=O)N[C@@H](CC(=O)O)C(=O)N[C@H](C(=O)NCC(=O)N1[C@H](C(=O)N[C@@H](Cc2ccccc2)C(=O)N[C@@H](C)C(=O)N[C@@H](Cc2ccccc2)C(N)=O)C[C@@H]2CCCC[C@@H]21)C(C)C)[C@@H](C)O)C(C)C)C(C)C)C(C)C)[C@@H](C)O)C(C)C` [SEQ ID NO:658], the solubility in words entry in [2] is recorded as “relatively insoluble”. In addition, in series [3], the major degradation product result is on record as “fragment W7-K25”. Further, in series [4], the “degradation products in vivo” value is “fragments W7-T9, T30-A36, W7-N26, T30-F37 and W7-hR24”.
On to Ac-WVTHRLAGLLSRSGGVVRKNFVPTDVGPFAF-NH2, for which the cleaved bond result in series [5] was “L16-S17, major; also recorded: S17-R18, major; also recorded: R18-S19, major”.
As for “Ac-WVTH[Cit]LAGLLS[Cit]SGGVV[hArg]K(20 KPEGald)NFVPTDVGP[1-Nal]AF-NH2 (WVTHXLAGLLSXSGGVVXKNFVPTDVGPXAF; not fully specified; N-acetyl, C-amide, 20 kDa PEG, Cit, hArg, 1-Nal; CGRP peptide; MOD_RES (1)..(1): …ON; MISC_FEATURE (5)..(5): xaa=citrulline; MISC_FEATURE (12)..(12): xaa=citrulline; MISC_FEATURE (18)..(18): xaa=homoarginine; MISC_FEATURE (19)..(19): PEGylated; MISC_FEATURE (29)..(29): xaa=3-(1-naphthyl)alanine; MOD_RES (31)..(31): AMI) [SEQ ID NO: 173]”, in series [6], the “t1/2 in rat plasma” value lay within 8 to 9 h. The “t1/2 in Cynomolgus plasma” value in [7] is listed as above 24 h. The “t1/2 in human plasma” value in series [8] is above 24 h. In [9] (iv), the AUC0-inf was 80996 ng·h/mL, the AUC0-t came to 80440 ng·h/mL and the MRT (commonly the average time that molecules of a dose stay in the body) came out at 4.97 h. In series [9] (sc), the AUC0-t was 4385 ng·h/mL and the F % came to 5%.
Consider “Ac-WVTH[Cit]LAGLLS[Cit]SGGVV[hArg]KNFVPTDVG[Oic]FAF-NH2”, for which the fragment found result in series [10] is reported as “W7-K25, major”; in series [11], “W7-T9, 20 min during the infusion; also recorded: T30-A36, 20 min during the infusion; also recorded: W7-N26, 20 min during the infusion; also recorded: T30-F37, 20 min during the infusion; also recorded: W7-hR24, 20 min during the infusion”; in “100% human plasma” it was “W7-hR24, major”.
“SEQ ID NO:15 (Ac-WVTHRLAGLLSRSGGVVRK(PEG)NFVPTDVGPFAF-NH2; reading uncertain)”: the “half-life longer than the non-PEGylated parent peptide” value in series [12] was “more than 9 fold”. In the series with CGRP1 receptor [13], the “improved potency relative to native CGRP(8-37) (SEQ ID NO:1)” value was “about 12 fold” and the “loss in antagonist activity on PEGylation relative to the unconjugated parent peptide” value is given as “three”.
On to “SEQ ID NO:791 (WVTHXLAGLLSXSGGVVRKNFVPTDVGPFAF; not fully specified; CGRP peptide; MOD_RES (1)..(1): …ON; MISC_FEATURE (5)..(5): xaa=citrulline; MISC_FEATURE (12)..(12): xaa=citrulline; MISC_FEATURE (19)..(19): PEGylated; MOD_RES (31)..(31): AMIDATION)”, for which the “rightward shift of in vitro potency compared with SEQ ID NO:31” value with rat CGRP1 receptor is on record as “approximately 9 fold”.

For the origin of these results see patent US8168592B2 (Amgen Inc., priority 2005, dated 2012).
